From US7247703 come the findings set out here.

The assay has as its target HLA-A2.1 class I MHC molecule on T2 cells (human). Nature of the assay: T2 class I MHC stabilization assay, anti-HLA-A2 immunofluorescent staining, peptide vs medium alone. The note with it: remark: other sources report otherwise.
Molecule CLTSTVQLV [p 789-797 HER-2/neu peptide …] returned a % Increase of class I stabilization on T2 of 20%.
For the molecule TLSPGKNGV [p 1172-1180 HER-2/neu peptide …], the % Increase of class I stabilization on T2 was 10%.
Turning to HLYQGCQVV [p 48-56 HER-2/neu peptide …], the % Increase of class I stabilization on T2 came to 20%.
